Blank lines part the entries; values can stand above or below the binder they belong to.
How the values were obtained:
Conditions in all cases: both partners purified
[1] = molecular target: T1, yeast RNA polymerase II, purified (CBP tag on RPB3) (yeast, UniProt P04050 1-1733; P08518 1-1224; P16370 1-318; P20433 1-221; P20434 1-215; P20435 …); assay: pull-down; GST fusion proteins on glutathione-Sepharose incubated with 1 μM purified pol II, 1.5 h, 4 °C; cleaved off with PreScission protease; Western blot with 8WG16 (RPB1) and anti-CBP
T1 construct: RPB1, largest subunit of yeast pol II, wild type with its CTD (26 heptapeptide repeats); RPB2 subunit of yeast pol II; RPB3 subunit of yeast pol II, TAP-tagged (CBP-TEV-protein A); CBP is left after TEV cleavage; RPB4 subunit of yeast pol II; RPB5 subunit of yeast pol II; RPB6 subunit of yeast pol II; RPB7 subunit of yeast pol II; RPB8 subunit of yeast pol II; RPB9 subunit of yeast pol II; RPB10 …

[2] = molecular target: T1, yeast RNA polymerase II, purified (CBP …); assay: pull-down; protein A-tagged protein on IgG resin incubated with 0.4 μM purified pol II in 20 mM Tris–HCl pH 8.0, 150 mM NaCl, 0.5 mM DTT, 1.5 h, 4 °C; Western blot with 8WG16 (RPB1) and anti-CBP (RPB3-CBP)
[3] = molecular target: T1, yeast RNA polymerase II, purified (CBP …); assay: cross-linking; purified pol II and Prp40 FF4-6 at ~1:1.5 molar ratio in 20 mM HEPES pH 7.5, 150 mM NaCl, 1 mM MgCl2, 0.5 mM TCEP; 1 mM DSSO or 2 mM SDA, 1 h, 4 °C; LC-MS/MS

B1: GST-fused Prp40 FF1 (134–189) (domain or fragment, S. cerevisiae, UniProt P33203 134-189, looked up)
chain: EAEKEFITMLKENQVDSTWSFSRIISELGTRDPRYWMVDDDPLWKKEMFEKYLSNR
notes: yeast Prp40 residues 134–189 (FF1); also called GST-FF1; source: E. coli (pGEX-6p-1), purified as GST fusion protein; not shown: GST, N-terminal, kept
binding result [1]: binds

B2: GST-fused Prp40 FF2 (204–269) (domain or fragment, S. cerevisiae, UniProt P33203 204-269, looked up)
chain: FKEAFQKMLQNNSHIKYYTRWPTAKRLIADEPIYKHSVVNEKTKRQTFQDYIDTLIDTQKESKKKL
notes: yeast Prp40 residues 204–269 (FF2); also called GST-FF2; source: E. coli (pGEX-6p-1), purified as GST fusion protein; not shown: GST, N-terminal, kept
binding result [1]: binds

B3: protein A-tagged Prp40 (full length) (natural protein, S. cerevisiae, UniProt P33203 1-583, looked up)
chain: MSIWKEAKDASGRIYYYNTLTKKSTWEKPKELISQEELLLRENGWKAAKTADGKVYYYNPTTRETSWTIPAFEKKVEPIAEQKHDTVSHAQVNGNRIALTAGEKQEPGRTINEEESQYANNSKLLNVRRRTKEEAEKEFITMLKENQVDSTWSFSRIISELGTRDPRYWMVDDDPLWKKEMFEKYLSNRSADQLLKEHNETSKFKEAFQKMLQNNSHIKYYTRWPTAKRLIADEPIYKHSVVNEKTKRQTFQDYIDTLIDTQKESKKKLKTQALKELREYLNGIITTSSSETFITWQQLLNHYVFDKSKRYMANRHFKVLTHEDVLNEYLKIVNTIENDLQNKLNELRLRNYTRDRIARDNFKSLLREVPIKIKANTRWSDIYPHIKSDPRFLHMLGRNGSSCLDLFLDFVDEQRMYIFAQRSIAQQTLIDQNFEWNDADSDEITKQNIEKVLENDRKFDKVDKEDISLIVDGLIKQRNEKIQQKLQNERRILEQKKHYFWLLLQRTYTKTGKPKPSTWDLASKELGESLEYKALGDEDNIRRQIFEDFKPESSAPTAESATANLTLTASKKRHLTPAVELDY
notes: yeast Prp40, full length, 583 residues; A TEV site lies between protein A and Prp40; also called ProtA-Prp40; source: yeast BCY123 (pRS414/GPD-protA-TEV-PRP40), purified on IgG resin; not shown: protein A, N-terminal, kept
binding result [2]: binds

Second part, the binder after the results:

binding result [1]: binds
B4: GST-fused Prp40 FF6 ext (488–583) (domain or fragment, S. cerevisiae, UniProt P33203 488-583, looked up)
chain: NERRILEQKKHYFWLLLQRTYTKTGKPKPSTWDLASKELGESLEYKALGDEDNIRRQIFEDFKPESSAPTAESATANLTLTASKKRHLTPAVELDY
notes: yeast Prp40 residues 488–583 (FF6 and the extension downstream of it, to the C-terminus); also called 6 extension; FF6 extension; source: E. coli (pGEX-6p-1), purified as GST fusion protein; not shown: GST, N-terminal, kept

binding result [1]: binds
B5: GST-fused Prp40 FF4 (351–415) (domain or fragment, S. cerevisiae, UniProt P33203 351-415, looked up)
chain: NYTRDRIARDNFKSLLREVPIKIKANTRWSDIYPHIKSDPRFLHMLGRNGSSCLDLFLDFVDEQR
notes: yeast Prp40 residues 351–415 (FF4); also called GST-FF4; source: E. coli (pGEX-6p-1), purified as GST fusion protein; not shown: GST, N-terminal, kept

binding result [3]: binds
B6: Prp40 FF4-6 (351–552) (domain or fragment, S. cerevisiae, UniProt P33203 351-552, looked up)
chain: NYTRDRIARDNFKSLLREVPIKIKANTRWSDIYPHIKSDPRFLHMLGRNGSSCLDLFLDFVDEQRMYIFAQRSIAQQTLIDQNFEWNDADSDEITKQNIEKVLENDRKFDKVDKEDISLIVDGLIKQRNEKIQQKLQNERRILEQKKHYFWLLLQRTYTKTGKPKPSTWDLASKELGESLEYKALGDEDNIRRQIFEDFKPE
notes: yeast Prp40 residues 351–552 (FF4 to FF6); also called Prp40 FF4-6 protein; source: E. coli (pGEX-6p-1), purified

binding result [1]: binds
B7: GST-fused Prp40 FF3 (270–335) (domain or fragment, S. cerevisiae, UniProt P33203 270-335, looked up)
chain: KTQALKELREYLNGIITTSSSETFITWQQLLNHYVFDKSKRYMANRHFKVLTHEDVLNEYLKIVNT
notes: yeast Prp40 residues 270–335 (FF3); also called GST-FF3; source: E. coli (pGEX-6p-1), purified as GST fusion protein; not shown: GST, N-terminal, kept
